Laboratory results taken from the supplement of paper PMC9112550, “Optimization of the antimicrobial peptide Bac7 by deep mutational scanning” (BMC Biology, 2022).

test system: Escherichia coli TOP10; experiment: shrunken log2 fold change of peptide-encoding DNA abundance (4.5 h post-induction vs induction); higher = less antimicrobial activity (less host growth inhibition); conditions: time post-induction: 4.5 h; library: site-saturation at positions 5, 18, 19, 20
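Further: peptides expressed intracellularly from a pBAD plasmid library in pooled LB shake-flask culture, induced with 0.3% L-arabinose, DNA abundance read by NGS, three biological replicates, DESeq2 with apeglm shrinkage.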

| Sequence | shrunken log2 fold change |
| --- | --- |
| RRIRSRPPRLPRPRPRPIWCPRP | -0.288 |
| RRIRRRPPRLPRPRPRPPYLPRP | 0.0685 |
| RRIRHRPPRLPRPRPRPNTWPRP | -0.0528 |
| RRIRHRPPRLPRPRPRPMSWPRP | -0.106 |
| RRIRERPPRLPRPRPRPTGAPRP | 0.316 |
| RRIRCRPPRLPRPRPRPVHQPRP | 0.11 |
| RRIRERPPRLPRPRPRPFPSPRP | -0.0393 |
| RRIRVRPPRLPRPRPRPRNPPRP | 0.148 |
| RRIRSRPPRLPRPRPRPRGIPRP | -0.33 |
| RRIRERPPRLPRPRPRPPKGPRP | -0.16 |
| RRIRLRPPRLPRPRPRPVPYPRP | -0.2 |
| RRIRFRPPRLPRPRPRPYERPRP | -0.119 |
| RRIRDRPPRLPRPRPRPIAAPRP | 0.476 |
| RRIRHRPPRLPRPRPRPQNCPRP | 0.0145 |
| RRIRERPPRLPRPRPRPRDHPRP | 0.162 |
| RRIRGRPPRLPRPRPRPGGIPRP | 0.402 |
| RRIRCRPPRLPRPRPRPFMTPRP | -0.737 |
| RRIRWRPPRLPRPRPRPPQHPRP | 0.275 |
| RRIRVRPPRLPRPRPRPEQVPRP | 0.0835 |
| RRIRKRPPRLPRPRPRPWSSPRP | -0.136 |
| RRIRTRPPRLPRPRPRPPSGPRP | 0.467 |
| RRIRERPPRLPRPRPRPCYKPRP | -0.901 |
| RRIRSRPPRLPRPRPRPWIPPRP | -0.119 |
| RRIRPRPPRLPRPRPRPKYPPRP | -0.672 |
| RRIRARPPRLPRPRPRPCAKPRP | 0.984 |

| Sequence | shrunken log2 fold change |
| --- | --- |
| RRIRARPPRLPRPRPRPYSKPRP | -0.91 |
| RRIRKRPPRLPRPRPRPNPHPRP | 0.188 |
| RRIRPRPPRLPRPRPRPFVHPRP | -0.246 |
| RRIRIRPPRLPRPRPRPADHPRP | -0.0431 |
| RRIRMRPPRLPRPRPRPWGWPRP | 1.08 |
| RRIRERPPRLPRPRPRPTWNPRP | -0.167 |
| RRIRLRPPRLPRPRPRPQERPRP | -0.839 |
| RRIRERPPRLPRPRPRPWGDPRP | 0.108 |
| RRIRIRPPRLPRPRPRPSLVPRP | 0.0916 |
| RRIRDRPPRLPRPRPRPATHPRP | 0.335 |
| RRIRERPPRLPRPRPRPMGIPRP | -0.113 |
| RRIRYRPPRLPRPRPRPDISPRP | -0.415 |
| RRIRTRPPRLPRPRPRPYHAPRP | -0.236 |
| RRIRVRPPRLPRPRPRPGATPRP | 0.277 |
| RRIRWRPPRLPRPRPRPEYNPRP | 0.195 |
| RRIRGRPPRLPRPRPRPVMDPRP | 0.96 |
| RRIRIRPPRLPRPRPRPDSYPRP | 0.072 |
| RRIRLRPPRLPRPRPRPTKVPRP | -0.0842 |
| RRIRERPPRLPRPRPRPMFTPRP | -0.278 |
| RRIRHRPPRLPRPRPRPECTPRP | 0.154 |
| RRIRDRPPRLPRPRPRPGCCPRP | 0.617 |
| RRIRKRPPRLPRPRPRPSTPPRP | 0.0478 |
| RRIRFRPPRLPRPRPRPGVVPRP | 0.231 |
| RRIRDRPPRLPRPRPRPTKIPRP | 0.0599 |
| RRIRYRPPRLPRPRPRPNFVPRP | -0.0161 |

| Sequence | shrunken log2 fold change |
| --- | --- |
| RRIRARPPRLPRPRPRPNTPPRP | -0.00444 |
| RRIRTRPPRLPRPRPRPLILPRP | -0.839 |
| RRIRRRPPRLPRPRPRPANKPRP | 0.0263 |
| RRIRSRPPRLPRPRPRPDCVPRP | -0.0759 |
| RRIRQRPPRLPRPRPRPAFAPRP | 0.344 |
| RRIRDRPPRLPRPRPRPRSFPRP | 0.429 |
| RRIRNRPPRLPRPRPRPDLAPRP | 0.02 |
| RRIRERPPRLPRPRPRPSVAPRP | 0.132 |
| RRIRDRPPRLPRPRPRPYQAPRP | -0.0283 |
| RRIRDRPPRLPRPRPRPVHCPRP | -0.0301 |
| RRIRSRPPRLPRPRPRPTHIPRP | -0.165 |
| RRIRARPPRLPRPRPRPDTCPRP | -0.162 |
| RRIRIRPPRLPRPRPRPVETPRP | 0.156 |
| RRIRIRPPRLPRPRPRPENMPRP | -0.396 |
| RRIRWRPPRLPRPRPRPGGMPRP | 0.286 |
| RRIRLRPPRLPRPRPRPLGMPRP | 0.0609 |
| RRIRRRPPRLPRPRPRPCCTPRP | -0.0151 |
| RRIRFRPPRLPRPRPRPISDPRP | 0.0114 |
| RRIRRRPPRLPRPRPRPRYCPRP | 0.216 |
| RRIRVRPPRLPRPRPRPRQCPRP | 0.33 |
| RRIRYRPPRLPRPRPRPTGVPRP | -0.0415 |
| RRIRRRPPRLPRPRPRPAPWPRP | 0.626 |
| RRIRYRPPRLPRPRPRPYSWPRP | -0.156 |
| RRIRHRPPRLPRPRPRPMPHPRP | -0.131 |
| RRIRHRPPRLPRPRPRPFVNPRP | -0.124 |
